Source: US6376240

Target: recombinant His6-RFLAT-1 (C-terminal portion of RFLAT-1, amino acids 59-288)
Sequence (chain, as listed by the source): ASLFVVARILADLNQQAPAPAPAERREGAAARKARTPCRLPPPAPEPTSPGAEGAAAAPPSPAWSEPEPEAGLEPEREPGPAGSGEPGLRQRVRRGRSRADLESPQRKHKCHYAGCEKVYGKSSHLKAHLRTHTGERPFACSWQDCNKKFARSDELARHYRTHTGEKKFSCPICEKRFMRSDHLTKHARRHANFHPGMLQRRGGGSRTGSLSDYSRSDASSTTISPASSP

B1: ERK1 kinase (protein)
chain: MAAAAAQGGGGGEPRRTEGVGPGVPGEVEMVKGQPFDVGPRYTQLQYIGEGAYGMVSSAYDHVRKTRVAIKKISPFEHQTYCQRTLREIQILLRFRHENVIGIRDILRASTLEAMRDVYIVQDLMETDLYKLLKSQQLSNDHICYFLYQILRGLKYIHSANVLHRDLKPSNLLINTTCDLKICDFGLARIADPEHDHTGFLTEYVATRWYRAPEIMLNSKGYTKSIDIWSVGCILAEMLSNRPIFPGKHYLDQLNHILGILGSPSQEDLNCIINMKARNYLQSLPSKTKVAWAKLFPKSDSKALDLLDRMLTFNPNKRITVEEALAHPYLEQYYDPTDEPVAEEPFTFAMELDDLPKERLKELIFQETARFQPGVLEAP
  phosphorylation of recombinant RFLAT-1 by kinase (control): As controls, ERK1 kinase does not
